Results: publication PMC8865373 (Biochemistry, 2021)
Where no end group is shown, it is not given here. [ ]: non-standard residue; d: D form. pS = N[C@@H](COP(=O)(O)O)C(=O)O

T1: TAZ2 domain (residues 1764–1855) of wild-type mouse CBP (mouse, UniProt P45481 1764-1855)
T1 sequence (looked up): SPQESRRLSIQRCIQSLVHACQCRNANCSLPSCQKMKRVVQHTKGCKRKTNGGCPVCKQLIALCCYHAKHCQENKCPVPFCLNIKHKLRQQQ

B1: E7(1–51) C24A/A50C labeled with Alexa fluor 594, unphosphorylated (domain or fragment)
chain: MHGDTPTLHEYMLDLQPETTDLYAYEQLNDSSEEEDEIDGPAGQAEPDRC(Alexa Fluor 594)H
B2: doubly-phosphorylated HPV16 ppE7(1–51) (domain or fragment)
chain: MHGDTPTLHEYMLDLQPETTDLYCYEQLND[pS][pS]EEEDEIDGPAGQAEPDRAH
B3: doubly-phosphorylated HPV16 ppE7(17–51) (domain or fragment)
chain: PETTDLYCYEQLND[pS][pS]EEEDEIDGPAGQAEPDRAH
B4: ppE7(1–51)(L15V) (domain or fragment)
chain: MHGDTPTLHEYMLDVQPETTDLYCYEQLND[pS][pS]EEEDEIDGPAGQAEPDRAH
B5: HPV16 E7(1–51), unphosphorylated (domain or fragment)
chain: MHGDTPTLHEYMLDLQPETTDLYCYEQLNDSSEEEDEIDGPAGQAEPDRAH
B6: HPV16 E7(17–51), unphosphorylated (domain or fragment)
chain: PETTDLYCYEQLNDSSEEEDEIDGPAGQAEPDRAH
B7: E7 CR2 peptide (residues 18–37) (peptide)
peptide: ETTDLYCYEQLNDSSEEEDE
B8: E7 CR1 peptide (residues 1–18) (peptide)
peptide: MHGDTPTLHEYMLDLQPE-NH2

Columns and labels:
[1] = biological target: T1, TAZ2 domain (residues 1764–1855) of …; experiment: fluorescence polarisation
[2] = biological target: T1, TAZ2 domain (residues 1764–1855) of …; experiment: NMR titration
[3] = biological target: T1, TAZ2 domain (residues 1764–1855) of …; experiment: fluorescence polarisation; remark: listed apart in the source
[4] = biological target: T1, TAZ2 domain (residues 1764–1855) of …; experiment: NMR titration; remark: listed apart in the source

Row | Binder | binding result [2] | Kd [3] [µM] | further results
1 | B1 |  |  | Kd [1]: 0.079 µM
2 | B2 | binds |  | 
3 | B3 | binds |  | 
4 | B4 | binds |  | 
5 | B5 |  | 0.1 ± 0.01 | 
6 | B6 |  | 1.8 ± 0.1 | 
7 | B7 |  | 4.6 ± 0.2 | Kd [4]: 3.4 µM
8 | B8 |  | 31 ± 2 | Kd [4]: 69 µM
